The text below walks through data of FireProtDB (doi:10.1021/acs.biochem.7b00571).

For the data set the following is noted: Nicotiana tabacum; pH 7.2; 4 °C; Urea; Fluorescence; BES; reversible: yes; whole UniProt chain shown.

B1: Salicylic acid-binding protein 2 wild type, Q6RYA0 (protein)
chain: MKEGKHFVLVHGACHGGWSWYKLKPLLEAAGHKVTALDLAASGTDLRKIEELRTLYDYTLPLMELMESLSADEKVILVGHSLGGMNLGLAMEKYPQKIYAAVFLAAFMPDSVHNSSFVLEQYNERTPAENWLDTQFLPYGSPEEPLTSMFFGPKFLAHKLYQLCSPEDLALASSLVRPSSLFMEDLSKAKYFTDERFGSVKRVYIVCTEDKGIPEEFQRWQIDNIGVTEAIEIKGADHMAMLCEPQKLCASLLEIAHKYN
Take B1: the “denaturant midpoint (higher = more stable)” value was 2.2 M.
